Six molecules from US20140087995A1 (published 2014) can be followed below.

Numbered stars: 1 amine (or outer) side, 2 acyl side, 3 side chain; on linkers, the order of the positions; unused ones are H or OH. Bridge positions count the residues as written; N and C are the ends. Side chains are listed from the residue outwards. Ends that are not written are not given here. * marks the point of attachment. C20 diacid = O=C(O)CCCCCCCCCCCCCCCCCCC(=O)*; γGlu = O=C(O)[C@H](CCC(=O)[*:2])N[*:1]; AEEA = NCCOCCOCC(=O)O

To fix the notation:
T1: human amylin receptor (amylin 3(a) receptor: human calcitonin receptor co-expressed with RAMP-3) (human, UniProt P30988 25-474; O60896 24-148, limits assumed)
T1 sequence (looked up) 1: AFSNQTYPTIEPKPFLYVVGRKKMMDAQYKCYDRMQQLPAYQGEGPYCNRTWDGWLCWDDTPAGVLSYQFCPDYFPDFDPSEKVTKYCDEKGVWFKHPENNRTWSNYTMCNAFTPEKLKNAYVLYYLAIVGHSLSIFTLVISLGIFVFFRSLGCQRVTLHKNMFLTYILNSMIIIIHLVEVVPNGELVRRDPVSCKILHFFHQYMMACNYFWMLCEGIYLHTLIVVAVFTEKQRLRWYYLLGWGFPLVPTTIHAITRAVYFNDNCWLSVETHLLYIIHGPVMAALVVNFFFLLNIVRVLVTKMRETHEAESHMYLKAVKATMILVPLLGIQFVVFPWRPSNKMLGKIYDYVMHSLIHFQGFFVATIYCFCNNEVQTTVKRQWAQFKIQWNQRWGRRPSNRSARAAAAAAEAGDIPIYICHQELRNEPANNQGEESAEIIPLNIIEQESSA
T1 sequence (looked up) 2: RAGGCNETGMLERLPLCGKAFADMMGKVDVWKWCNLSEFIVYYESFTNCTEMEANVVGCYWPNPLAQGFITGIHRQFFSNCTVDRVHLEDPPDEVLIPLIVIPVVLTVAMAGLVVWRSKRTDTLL

T2: human calcitonin receptor (human, UniProt P30988 25-474)
T2 sequence (looked up): T1 sequence (looked up) 1

B1: N^ε-[(4S)-4-carboxy-4-(19-carboxynonadecanoylamino)butanoyl]Lys[Arg1,Arg17,Pro21,Pro27,His35]-h-amylin (peptide)
peptide: K([γGlu-C20 diacid])RCNTATCATQRLANFLRHSSPNFGAIPSSTNVGSHTY-NH2
modifications: disulfide 3-8; N-terminus assumed
SMILES: CC[C@H](C)[C@H](NC(=O)[C@H](C)NC(=O)CNC(=O)[C@H](Cc1ccccc1)NC(=O)[C@H](CC(N)=O)NC(=O)[C@@H]1CCCN1C(=O)[C@H](CO)NC(=O)[C@H](CO)NC(=O)[C@H](Cc1c[nH]cn1)NC(=O)[C@H](CCCNC(=N)N)NC(=O)[C@H](CC(C)C)NC(=O)[C@H](Cc1ccccc1)NC(=O)[C@H](CC(N)=O)NC(=O)[C@H](C)NC(=O)[C@H](CC(C)C)NC(=O)[C@H](CCCNC(=N)N)NC(=O)[C@H](CCC(N)=O)NC(=O)[C@@H](NC(=O)[C@H](C)NC(=O)[C@@H]1CSSC[C@H](NC(=O)[C@H](CCCNC(=N)N)NC(=O)[C@@H](N)CCCCNC(=O)CC[C@H](NC(=O)CCCCCCCCCCCCCCCCCCC(=O)O)C(=O)O)C(=O)N[C@@H](CC(N)=O)C(=O)N[C@@H]([C@@H](C)O)C(=O)N[C@@H](C)C(=O)N[C@@H]([C@@H](C)O)C(=O)N1)[C@@H](C)O)C(=O)N1CCC[C@H]1C(=O)N[C@@H](CO)C(=O)N[C@@H](CO)C(=O)N[C@H](C(=O)N[C@@H](CC(N)=O)C(=O)N[C@H](C(=O)NCC(=O)N[C@@H](CO)C(=O)N[C@@H](Cc1c[nH]cn1)C(=O)N[C@H](C(=O)N[C@@H](Cc1ccc(O)cc1)C(N)=O)[C@@H](C)O)C(C)C)[C@@H](C)O
notes: 38 residues: N-terminal extension by Lys (-1K); also called compound 44
B2: N^ε1-[2-[2-[2-(19-carboxynonadecanoylamino)ethoxy]ethoxy]acetyl]-[Arg17,Pro21,Pro27]-h-amylin (peptide)
peptide: K([AEEA-C20 diacid])CNTATCATQRLANFLRHSSPNFGAIPSSTNVGSNTY-NH2
modifications: disulfide 2-7; N-terminus assumed
SMILES: CC[C@H](C)[C@H](NC(=O)[C@H](C)NC(=O)CNC(=O)[C@H](Cc1ccccc1)NC(=O)[C@H](CC(N)=O)NC(=O)[C@@H]1CCCN1C(=O)[C@H](CO)NC(=O)[C@H](CO)NC(=O)[C@H](Cc1c[nH]cn1)NC(=O)[C@H](CCCNC(=N)N)NC(=O)[C@H](CC(C)C)NC(=O)[C@H](Cc1ccccc1)NC(=O)[C@H](CC(N)=O)NC(=O)[C@H](C)NC(=O)[C@H](CC(C)C)NC(=O)[C@H](CCCNC(=N)N)NC(=O)[C@H](CCC(N)=O)NC(=O)[C@@H](NC(=O)[C@H](C)NC(=O)[C@@H]1CSSC[C@H](NC(=O)[C@@H](N)CCCCNC(=O)COCCOCCNC(=O)CCCCCCCCCCCCCCCCCCC(=O)O)C(=O)N[C@@H](CC(N)=O)C(=O)N[C@@H]([C@@H](C)O)C(=O)N[C@@H](C)C(=O)N[C@@H]([C@@H](C)O)C(=O)N1)[C@@H](C)O)C(=O)N1CCC[C@H]1C(=O)N[C@@H](CO)C(=O)N[C@@H](CO)C(=O)N[C@H](C(=O)N[C@@H](CC(N)=O)C(=O)N[C@H](C(=O)NCC(=O)N[C@@H](CO)C(=O)N[C@@H](CC(N)=O)C(=O)N[C@H](C(=O)N[C@@H](Cc1ccc(O)cc1)C(N)=O)[C@@H](C)O)C(C)C)[C@@H](C)O
notes: also called compound 43
B3: N^ε1-[(4S)-4-carboxy-4-(19-carboxynonadecanoylamino)butanoyl]-[His14,Arg17,Pro21,Pro27,His35]-h-amylin (peptide)
peptide: K([γGlu-C20 diacid])CNTATCATQRLAHFLRHSSPNFGAIPSSTNVGSHTY-NH2
modifications: disulfide 2-7; N-terminus assumed
SMILES: CC[C@H](C)[C@H](NC(=O)[C@H](C)NC(=O)CNC(=O)[C@H](Cc1ccccc1)NC(=O)[C@H](CC(N)=O)NC(=O)[C@@H]1CCCN1C(=O)[C@H](CO)NC(=O)[C@H](CO)NC(=O)[C@H](Cc1c[nH]cn1)NC(=O)[C@H](CCCNC(=N)N)NC(=O)[C@H](CC(C)C)NC(=O)[C@H](Cc1ccccc1)NC(=O)[C@H](Cc1c[nH]cn1)NC(=O)[C@H](C)NC(=O)[C@H](CC(C)C)NC(=O)[C@H](CCCNC(=N)N)NC(=O)[C@H](CCC(N)=O)NC(=O)[C@@H](NC(=O)[C@H](C)NC(=O)[C@@H]1CSSC[C@H](NC(=O)[C@@H](N)CCCCNC(=O)CC[C@H](NC(=O)CCCCCCCCCCCCCCCCCCC(=O)O)C(=O)O)C(=O)N[C@@H](CC(N)=O)C(=O)N[C@@H]([C@@H](C)O)C(=O)N[C@@H](C)C(=O)N[C@@H]([C@@H](C)O)C(=O)N1)[C@@H](C)O)C(=O)N1CCC[C@H]1C(=O)N[C@@H](CO)C(=O)N[C@@H](CO)C(=O)N[C@H](C(=O)N[C@@H](CC(N)=O)C(=O)N[C@H](C(=O)NCC(=O)N[C@@H](CO)C(=O)N[C@@H](Cc1c[nH]cn1)C(=O)N[C@H](C(=O)N[C@@H](Cc1ccc(O)cc1)C(N)=O)[C@@H](C)O)C(C)C)[C@@H](C)O
notes: also called compound 66
B4: N^ε21-[(4S)-4-carboxy-4-[[(4S)-4-carboxy-4-(19-carboxynonadecanoylamino)butanoyl]amino]butanoyl]-[Asp14,Arg17,Lys21,Pro27,Asp35]-h-amylin (peptide)
peptide: KCNTATCATQRLADFLRHSSK([γGlu-γGlu-C20 diacid])NFGAIPSSTNVGSDTY-NH2
modifications: disulfide 2-7; N-terminus assumed
SMILES: CC[C@H](C)[C@H](NC(=O)[C@H](C)NC(=O)CNC(=O)[C@H](Cc1ccccc1)NC(=O)[C@H](CC(N)=O)NC(=O)[C@H](CCCCNC(=O)CC[C@H](NC(=O)CC[C@H](NC(=O)CCCCCCCCCCCCCCCCCCC(=O)O)C(=O)O)C(=O)O)NC(=O)[C@H](CO)NC(=O)[C@H](CO)NC(=O)[C@H](Cc1c[nH]cn1)NC(=O)[C@H](CCCNC(=N)N)NC(=O)[C@H](CC(C)C)NC(=O)[C@H](Cc1ccccc1)NC(=O)[C@H](CC(=O)O)NC(=O)[C@H](C)NC(=O)[C@H](CC(C)C)NC(=O)[C@H](CCCNC(=N)N)NC(=O)[C@H](CCC(N)=O)NC(=O)[C@@H](NC(=O)[C@H](C)NC(=O)[C@@H]1CSSC[C@H](NC(=O)[C@@H](N)CCCCN)C(=O)N[C@@H](CC(N)=O)C(=O)N[C@@H]([C@@H](C)O)C(=O)N[C@@H](C)C(=O)N[C@@H]([C@@H](C)O)C(=O)N1)[C@@H](C)O)C(=O)N1CCC[C@H]1C(=O)N[C@@H](CO)C(=O)N[C@@H](CO)C(=O)N[C@H](C(=O)N[C@@H](CC(N)=O)C(=O)N[C@H](C(=O)NCC(=O)N[C@@H](CO)C(=O)N[C@@H](CC(=O)O)C(=O)N[C@H](C(=O)N[C@@H](Cc1ccc(O)cc1)C(N)=O)[C@@H](C)O)C(C)C)[C@@H](C)O
notes: also called compound 59
B5: N^ε1-[(4S)-4-carboxy-4-(19-carboxynonadecanoylamino)butanoyl]-[His14,Arg17,Pro21,Pro27]-h-amylin (peptide)
peptide: K([γGlu-C20 diacid])CNTATCATQRLAHFLRHSSPNFGAIPSSTNVGSNTY-NH2
modifications: disulfide 2-7; N-terminus assumed
SMILES: CC[C@H](C)[C@H](NC(=O)[C@H](C)NC(=O)CNC(=O)[C@H](Cc1ccccc1)NC(=O)[C@H](CC(N)=O)NC(=O)[C@@H]1CCCN1C(=O)[C@H](CO)NC(=O)[C@H](CO)NC(=O)[C@H](Cc1c[nH]cn1)NC(=O)[C@H](CCCNC(=N)N)NC(=O)[C@H](CC(C)C)NC(=O)[C@H](Cc1ccccc1)NC(=O)[C@H](Cc1c[nH]cn1)NC(=O)[C@H](C)NC(=O)[C@H](CC(C)C)NC(=O)[C@H](CCCNC(=N)N)NC(=O)[C@H](CCC(N)=O)NC(=O)[C@@H](NC(=O)[C@H](C)NC(=O)[C@@H]1CSSC[C@H](NC(=O)[C@@H](N)CCCCNC(=O)CC[C@H](NC(=O)CCCCCCCCCCCCCCCCCCC(=O)O)C(=O)O)C(=O)N[C@@H](CC(N)=O)C(=O)N[C@@H]([C@@H](C)O)C(=O)N[C@@H](C)C(=O)N[C@@H]([C@@H](C)O)C(=O)N1)[C@@H](C)O)C(=O)N1CCC[C@H]1C(=O)N[C@@H](CO)C(=O)N[C@@H](CO)C(=O)N[C@H](C(=O)N[C@@H](CC(N)=O)C(=O)N[C@H](C(=O)NCC(=O)N[C@@H](CO)C(=O)N[C@@H](CC(N)=O)C(=O)N[C@H](C(=O)N[C@@H](Cc1ccc(O)cc1)C(N)=O)[C@@H](C)O)C(C)C)[C@@H](C)O
notes: also called compound 70
B6: N^ε1-[(4S)-4-carboxy-4-(19-carboxynonadecanoylamino)butanoyl]-[His14,Arg17,Pro21,Pro27,Pro31]-h-amylin (peptide)
peptide: K([γGlu-C20 diacid])CNTATCATQRLAHFLRHSSPNFGAIPSSTPVGSNTY-NH2
modifications: disulfide 2-7; N-terminus assumed
SMILES: CC[C@H](C)[C@H](NC(=O)[C@H](C)NC(=O)CNC(=O)[C@H](Cc1ccccc1)NC(=O)[C@H](CC(N)=O)NC(=O)[C@@H]1CCCN1C(=O)[C@H](CO)NC(=O)[C@H](CO)NC(=O)[C@H](Cc1c[nH]cn1)NC(=O)[C@H](CCCNC(=N)N)NC(=O)[C@H](CC(C)C)NC(=O)[C@H](Cc1ccccc1)NC(=O)[C@H](Cc1c[nH]cn1)NC(=O)[C@H](C)NC(=O)[C@H](CC(C)C)NC(=O)[C@H](CCCNC(=N)N)NC(=O)[C@H](CCC(N)=O)NC(=O)[C@@H](NC(=O)[C@H](C)NC(=O)[C@@H]1CSSC[C@H](NC(=O)[C@@H](N)CCCCNC(=O)CC[C@H](NC(=O)CCCCCCCCCCCCCCCCCCC(=O)O)C(=O)O)C(=O)N[C@@H](CC(N)=O)C(=O)N[C@@H]([C@@H](C)O)C(=O)N[C@@H](C)C(=O)N[C@@H]([C@@H](C)O)C(=O)N1)[C@@H](C)O)C(=O)N1CCC[C@H]1C(=O)N[C@@H](CO)C(=O)N[C@@H](CO)C(=O)N[C@H](C(=O)N1CCC[C@H]1C(=O)N[C@H](C(=O)NCC(=O)N[C@@H](CO)C(=O)N[C@@H](CC(N)=O)C(=O)N[C@H](C(=O)N[C@@H](Cc1ccc(O)cc1)C(N)=O)[C@@H](C)O)C(C)C)[C@@H](C)O
notes: also called compound 62

The first assay addresses T1, human amylin receptor (amylin 3(a) …). The experiment in a line: cell-based or functional assay.
Turning to B1, the “hAmylin-R funct. EC50” value was determined as 0.198 nM.

B2: the “hAmylin-R funct. EC50” value amounted to 0.141 nM.

On to B3, for which the “hAmylin-R funct. EC50” value worked out at 0.027 nM.

As to B4, the “hAmylin-R funct. EC50” value was found to be 0.389 nM.

B5: the “hAmylin-R funct. EC50” value was 0.04 nM.

Consider B6, for which the “hAmylin-R funct. EC50” value turned out to be 0.044 nM.

In another assay the target is T2, human calcitonin receptor. Kind of assay: cell-based or functional assay.
B1: the “Ratio hCT/hAmylin funct. (hCTR EC50 against hAmylin-R EC50)” value came out at 24 and the “hCTR funct. EC50” value is 4.75 nM.

As to B2, the “Ratio hCT/hAmylin funct. (hCTR EC50 against hAmylin-R EC50)” value is 6.5 and the “hCTR funct. EC50” value stood at 0.92 nM.

Regarding B3, the “Ratio hCT/hAmylin funct. (hCTR EC50 against hAmylin-R EC50)” value came to 20.1 and the “hCTR funct. EC50” value was 0.542 nM.

With B4, the “Ratio hCT/hAmylin funct. (hCTR EC50 against hAmylin-R EC50)” value is 5 and the “hCTR funct. EC50” value stood at 1.95 nM.

For B5, the “Ratio hCT/hAmylin funct. (hCTR EC50 against hAmylin-R EC50)” value amounted to 17.9 and the “hCTR funct. EC50” value came out at 0.715 nM.

Turning to B6, the “Ratio hCT/hAmylin funct. (hCTR EC50 against hAmylin-R EC50)” value amounted to 12.3 and the “hCTR funct. EC50” value is 0.539 nM.
